Biological target: the molecule itself
Assay: crystal structure

B1: NudC (residues 1-257, E178Q), Escherichia coli, active-site mutant (enzyme, UniProt P32664 1-257, looked up)
chain: MDRIIEKLDHGWWVVSHEQKLWLPKGELPYGEAANFDLVGQRALQIGEWQGEPVWLVQQQRRHDMGSVRQVIDLDVGLFQLAGRGVQLAEFYRSHKYCGYCGHEMYPSKTEWAMLCSHCRERYYPQIAPCIIVAIRRDDSILLAQHTRHRNGVHTVLAGFVEVGETLEQAVAREVMEQSGIKVKNLRYVTSQPWPFPQSLMTAFMAEYDSGDIVIDPKELLEANWYRYDDLPLLPPPGTVARRLIEDTVAMCRAEYE
**Q.** How did the “stoichiometry N” value turn out when B1 was run?
**A.** 2
